Measurements: patent publication US11369662B2 (The Medical College of Wisconsin, Inc., priority 2014, dated 2022)

Columns and labels:
[1] = target: T1, CXCL12WT dimerization (Homo sapiens, UniProt P48061); assay: Intrinsic tryptophan fluorescence polarization assay of CXCL12WT dimerization; type: binding; conditions: for ΔGdimer: 298 K
T1 construct: made in house
Procedure: Fluorescence polarization assay. Fluorescence polarization (FP) assays were performed on a PTI spectrofluorometer equipped with automated polarizers, using a time base polarization method provided by the program Felix32. […] Experiments were performed in duplicate and the reported dimerization Kd values reflect the average of both experiments.

[2] = target: T2, CXCR4 (Y7A, Y12A, Y21A) (Homo sapiens, UniProt P61073, Y12A/Y21A/Y7A); assay: Calcium flux in CHO-K1 cells, FLAG-tagged CXCR4 with Y7A, Y12A and Y21A; type: cell-based
T2 construct: expressed in transfected cells; host or cells: CHO-K1 stably expressing Galpha15 (transient)
T2 sequence (P61073 whole entry Y7A/Y12A/Y21A): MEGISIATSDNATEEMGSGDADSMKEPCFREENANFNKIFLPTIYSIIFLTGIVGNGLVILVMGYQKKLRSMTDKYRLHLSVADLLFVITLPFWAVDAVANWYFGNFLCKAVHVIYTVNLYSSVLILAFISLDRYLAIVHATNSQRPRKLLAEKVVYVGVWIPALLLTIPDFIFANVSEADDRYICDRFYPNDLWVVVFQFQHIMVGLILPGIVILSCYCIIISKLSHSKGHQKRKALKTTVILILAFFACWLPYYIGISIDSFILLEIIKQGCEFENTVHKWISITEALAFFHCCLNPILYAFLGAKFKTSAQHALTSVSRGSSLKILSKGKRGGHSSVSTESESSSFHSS
Procedure: (§1) Cell culture. Chinese hamster ovary K1 (CHO-K1) cells, stably transfected with the Gα15 gene in pcDNA3.1+, were cultured in a 1:1 mixture of Dulbecco's modified Eagle medium (DMEM) with Glutamax (Gibco):F12 nutrient mixture (Gibco) supplemented with 10% (w/v) fetal bovine serum (FBS) (Gibco). Stable expression of the Gα15 transgene was maintained by further supplementing the growth medium with 700 μg ml^−1 geneticin (Gibco).
(§2) Transfections. For transient transfections with the Flag-CXCR4 WT and N-terminally mutated constructs, the CHO-K1 Gα15 stable cells were lifted using 0.25% (v/v) trypsin-EDTA (Gibco), and 2×10^6 cells were re-plated onto 10 cm culture dishes. […] The cells were transfected 24 hours later using the Mirus TransIT-CHO Transfection Kit according to the manufacturers protocol, with the following exceptions: the amount of CHO transfection reagent was scaled up to 4 μl μg^−1 of DNA in the transfection mixtures, and the amount of CHO mojo reagent was scaled up to 1 μl μg^−1 of DNA in the mixtures. […]
(§3) Calcium flux. […] Fluorescence was measured at 310 K using a FlexStation2 Microplate Reader with excitation and emission wavelengths at 485 nm and 515 nm, respectively. […] CXCR4 variants with EC50 or maximum calcium response values more than three standard deviations from the mean CXCR4WT quantities were deemed significant.

[3] = target: T3, CXCR4(Y12A) (Homo sapiens, UniProt P61073, Y12A); assay: Calcium flux in CHO-K1 cells, FLAG-tagged CXCR4(Y12A); type: cell-based; conditions: relative to wildtype CXCR4
T3 construct: expressed in transfected cells; host or cells: CHO-K1 stably expressing Galpha15 (transient)
T3 sequence (P61073 whole entry Y12A): as the sequence (P61073 whole entry Y7A/Y12A/Y21A) above, with A7Y, A21Y counted along it
Procedure: as §1, §2, §3

[4] = target: T4, CXCR41-38 (Homo sapiens, UniProt P61073, C28A); assay: Binding of CXCL12 variants to CXCR41-38 by 2D NMR chemical shift perturbation; conditions: nonlinear fitting of chemical shift perturbations, quadratic binding equation; read-out: Kd (affinity for CXCR41-38)
T4 construct: comprising the first 38 amino acids of CXCR4 preceded by a residual GlyMet dipeptide tag; made in house
T4 sequence (P61073 1-38 C28A): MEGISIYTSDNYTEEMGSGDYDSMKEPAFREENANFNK
Procedure: Total peptide additions differed for individual peptide titrations but ranged from 0-160 equivalencies. Spectra were processed using in-house scripts and chemical shift tracking was performed using CARA software. […] For a given interaction, residues with the largest chemical shift perturbations were fitted individually.

[5] = target: T5, CXCR4 (Homo sapiens, UniProt P61073); assay: Radioligand displacement of 125I-CXCL12 from CXCR4 membrane preparations; type: binding; conditions: relative to CXCL12WT
T5 construct: purchased Millipore
T5 sequence (P61073 whole entry): as the sequence (P61073 whole entry Y7A/Y12A/Y21A) above, with A7Y, A12Y, A21Y counted along it
Procedure: Radioligand displacement. Commercial membrane preparations of cells stably expressing CXCR4 or CXCR7 were purchased (Millipore). Five micrograms of protein per point was incubated for 90 min on ice in binding buffer with 0.03 nM of […] as a tracer and increasing concentrations of competitor in a final 40 μL volume. Bound radioactivity was separated from free ligand by filtration, and receptor-bound radioactivity was quantified by gamma-radiation counting (Perkin-ECXCL121er Life and Analytical Sciences). Isolated membrane binding experiments were carried out in duplicate.

T1 sequence (P48061 22-89): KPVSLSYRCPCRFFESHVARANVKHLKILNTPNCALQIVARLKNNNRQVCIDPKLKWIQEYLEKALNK

## CXCL12WT: wild type CXCL12 (stromal cell-derived factor-1/SDF-1), SEQ ID NO:1
[1]; pathway 1: dimerization after sTyr21 sulfopeptide binding
  ΔGdimer: −3.5 kcal mol^−
[1]; pathway 2: dimerization before sulfopeptide binding
  ΔGdimer: −2.5 kcal mol^−
[1]; read-out: Kd for CXCL12WT dimerization, in the presence of 50 mM sulfotyrosine
  Kd: 9.3 ± 1.8 mM
[2]
  efficacy (maximum calcium response): ~20 % of the wildtype receptor
[2]; relative to CXCR4(Y21A)
  potency (calcium response): did not further diminish the potency relative to CXCR4(Y21A)
[3]
  reduction of potency (calcium response): 3 fold

## CXCL122: constitutively dimeric variant of CXCL12 containing L36C/A65C mutations
[4]
  Kd: 0.0009 ± 0.0003 mM
[5]
  recognition of the full-length receptor in comparison to CXCL12WT: six-times weaker
